Experiment in all cases: purified protein
Substrate in data set [1]: COc1ccccc1O
The following applies: McIlvaine buffer, 30 °C, 10 min, apparent Km.

Substrate in data set [2]: CCn1c(=NN=c2sc3cc(S(=O)(=O)O)ccc3n2CC)sc2cc(S(=O)(=O)O)ccc21
The data set is classed as biochemical, Coprinopsis cinerea. The following applies: McIlvaine buffer (pH 2.6 in the standard assay), 30 °C, 10 min, apparent Km.

Substrate in data set [3]: COc1cccc(OC)c1O
The format is biochemical, Coprinopsis cinerea. The following applies: McIlvaine buffer, 30 °C, 10 min, apparent Km.

B1: CcLcc2 (laccase 2) (Coprinopsis cinerea okayama7#130) (protein)
chain: AIGPSTNLVVANKVIAPDGFSRSAVLAGATQPTVQFPGPVIQGNKNSFFAINVIDALTDPTMLRTTSIHWHGMFQRGTAWADGPAGVTQCPISPGHSFLYKFQALNQAGTFWYHSHHESQYCDGLRGAMVVYDPVDPHRNLYDIDNEATIITLADWYHVPAPSAGLVPTPDSTLINGKGRYAGGPTVPLAVISVTRNRRYRFRLVSLSCDPNYVFSIDGHTMTVIEVDGVNVQPLVVDSIQIFAGQRYSFVLNANRPVGNYWVRANPNIGTTGFVGGVNSAILRYVGASNTDPTTTQTPFSNPLLETNLHPLTNPAAPGLPTPGGVDVAINLNTVFDFSSLTFSVNGATFHQPPVPVLLQIMSGAQTAQQLLPSGSVYVLPRNKVIELSMPGGSTGSPHPFHLHGHEFAVVRSAGSSTYNFANPVRRDVVSAGVAGDNVTIRFRTDNPGPWILHCHIDWHLVLGLAVVFAEDAPTVATMDPPPAWDQLCPIYDALPPNT
As for B1, in “purified protein [1]”, the Michaelis-Menten constant (Km) (commonly the substrate concentration at which the rate is half of its maximum) worked out at 28070 µM; the Vmax (commonly the top rate of the reaction or transport when substrate is in excess) was 2.46 µmol/min/mg; the kcat (usually the maximal rate divided by the concentration of active sites) came to 3.12 s⁻¹; the kcat/Km (as a rule, the second-order rate constant that governs catalysis at low substrate concentration) was found to be 111 M⁻¹ s⁻¹. Further, in the data set “purified protein [2]”, the Km is 930 µM, the Vmax turned out to be 667 µmol/min/mg, the kcat was determined as 847 s⁻¹ and the kcat/Km amounted to 911000 M⁻¹ s⁻¹. Further, in “purified protein [3]”, the Km was determined as 1020 µM, the Vmax was determined as 57.5 µmol/min/mg, the kcat was determined as 73 s⁻¹ and the kcat/Km was determined as 71600 M⁻¹ s⁻¹.

Values taken from publication PMC4433907, “Heterologous expression and characterization of laccase 2 from Coprinopsis cinerea capable of decolourizing different recalcitrant dyes” (Biotechnology, Biotechnological Equipment, 2014).
